From patent publication US20170313756A1 come the findings set out here.

Read-outs that look alike come from different tables or passages of the source. [ ]: non-standard residue; d: D form. The star is where a group is joined. dCha = N[C@H](CC1CCCCC1)C(=O)O; NH(CH2)3Ph = c1ccc(CCCN*)cc1 Some results are limits rather than exact numbers.

In experiment [1] the target is melanocortin 1 receptor (MC1R) (UniProt Q01726). The experiment in a line: 125I-NDP-MSH competition, HEK293 membranes.
The target is the same in experiment [2]. The experiment in a line: 125I-NDP-MSH competition, HEK293 membranes. This is another data set of the same source.
Experiment [3] has as its target melanocortin 3 receptor (MC3R) (UniProt P41968). The experiment in a line: 125I-NDP-MSH competition, HEK293 membranes.
The target in experiment [4] is melanocortin 4 receptor (MC4R) (UniProt P32245). The experiment in a line: 125I-NDP-MSH competition, HEK293 membranes.
Sequence of melanocortin 4 receptor (MC4R) (P32245 whole entry): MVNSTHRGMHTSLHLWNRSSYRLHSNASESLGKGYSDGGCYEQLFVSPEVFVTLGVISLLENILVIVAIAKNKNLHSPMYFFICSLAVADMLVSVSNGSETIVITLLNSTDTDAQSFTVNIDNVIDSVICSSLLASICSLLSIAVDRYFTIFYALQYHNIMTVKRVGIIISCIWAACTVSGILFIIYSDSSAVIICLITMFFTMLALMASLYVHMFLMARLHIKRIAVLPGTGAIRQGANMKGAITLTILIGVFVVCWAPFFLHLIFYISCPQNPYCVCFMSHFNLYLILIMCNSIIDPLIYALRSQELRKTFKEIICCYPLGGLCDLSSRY
Experiment [5] deals with melanocortin 5 receptor (MC5R) (UniProt P33032). The experiment in a line: 125I-NDP-MSH competition, HEK293 membranes.
Sequence of melanocortin 5 receptor (MC5R) (P33032 whole entry): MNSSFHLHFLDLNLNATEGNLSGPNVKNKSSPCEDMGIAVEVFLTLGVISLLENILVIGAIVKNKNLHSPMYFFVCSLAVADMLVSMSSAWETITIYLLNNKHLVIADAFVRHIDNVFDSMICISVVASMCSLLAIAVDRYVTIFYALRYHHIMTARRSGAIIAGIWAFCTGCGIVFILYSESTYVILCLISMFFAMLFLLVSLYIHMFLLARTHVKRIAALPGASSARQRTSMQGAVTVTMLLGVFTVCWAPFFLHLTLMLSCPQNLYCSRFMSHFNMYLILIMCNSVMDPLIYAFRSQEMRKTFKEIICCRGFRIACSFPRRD
For experiment [6], the target named is mouse MC1R (on murine B16-F1 melanoma cells) (mouse) (UniProt Q01727). The experiment in a line: cell-based or functional assay.
Sequence of mouse MC1R (on murine B16-F1 melanoma cells) (mouse) (Q01727 whole entry): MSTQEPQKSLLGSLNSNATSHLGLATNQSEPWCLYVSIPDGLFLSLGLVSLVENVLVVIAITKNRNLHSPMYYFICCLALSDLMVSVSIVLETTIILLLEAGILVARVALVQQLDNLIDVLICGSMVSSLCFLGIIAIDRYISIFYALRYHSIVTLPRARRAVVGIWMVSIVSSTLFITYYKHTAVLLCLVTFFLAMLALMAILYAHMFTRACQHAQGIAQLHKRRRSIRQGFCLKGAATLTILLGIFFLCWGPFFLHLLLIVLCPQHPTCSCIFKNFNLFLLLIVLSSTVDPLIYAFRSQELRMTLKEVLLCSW

Sequence of melanocortin 1 receptor (MC1R) (Q01726 whole entry): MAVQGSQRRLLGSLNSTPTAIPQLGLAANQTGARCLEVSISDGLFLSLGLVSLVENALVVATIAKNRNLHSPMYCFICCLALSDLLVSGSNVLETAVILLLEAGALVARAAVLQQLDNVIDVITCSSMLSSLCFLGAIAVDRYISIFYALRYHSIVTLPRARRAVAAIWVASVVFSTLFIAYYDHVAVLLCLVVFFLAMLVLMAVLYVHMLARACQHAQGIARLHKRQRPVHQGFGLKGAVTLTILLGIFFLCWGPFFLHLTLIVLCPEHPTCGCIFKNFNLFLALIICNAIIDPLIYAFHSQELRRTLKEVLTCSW
Sequence of melanocortin 3 receptor (MC3R) (P41968 whole entry): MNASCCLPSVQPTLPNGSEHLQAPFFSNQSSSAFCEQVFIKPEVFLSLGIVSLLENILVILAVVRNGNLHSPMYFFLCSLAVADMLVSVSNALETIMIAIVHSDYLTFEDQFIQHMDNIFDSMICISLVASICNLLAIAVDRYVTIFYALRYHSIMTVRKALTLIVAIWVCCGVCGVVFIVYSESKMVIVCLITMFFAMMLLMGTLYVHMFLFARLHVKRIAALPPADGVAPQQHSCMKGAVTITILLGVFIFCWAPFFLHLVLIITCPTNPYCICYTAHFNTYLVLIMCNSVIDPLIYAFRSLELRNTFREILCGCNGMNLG

B1: peptide 847 (peptide)
peptide: H-[dV][dP][dK]G[dW][dR][dF][dH]-{NH(CH2)3Ph}
SMILES: CC(C)[C@@H](N)C(=O)N1CCC[C@@H]1C(=O)N[C@H](CCCCN)C(=O)NCC(=O)N[C@H](Cc1c[nH]c2ccccc12)C(=O)N[C@H](CCCNC(=N)N)C(=O)N[C@H](Cc1ccccc1)C(=O)N[C@H](Cc1c[nH]cn1)C(=O)NCCCc1ccccc1
B1: the Ki (in general, a dissociation constant, usually derived from enzyme kinetics or from competition with a known ligand) turned out to be 104 nM in experiment [1] and 150 nM in experiment [2].

B2: peptide 809 (peptide)
peptide: VPKGWRFAEMSYS
modifications: N-terminal acetyl (Ac); C-terminal amide; D-isomers at all residues except Gly 4
In the case of B2, the Ki in experiment [1] was determined as 1200 nM.

B3: peptide 858 (peptide)
peptide: VPXGWRFHEMSYS
modifications: N-terminal acetyl (Ac); C-terminal amide; D-Norleucine at 3; D-isomers at all residues except Gly 4
The molecule B3 came in with a Ki in experiment [1] of 18 nM.

With Ac-[dW][dR]F[dH]-{1,6‑diaminohexane-stearyl} [peptide 882], in experiment [1], the Ki is 120 nM. Besides, the fold improvement of binding over wrFh in experiment [2] was > 250 fold.

B4: peptide 870 (peptide)
peptide: VPKGWRWHEMSYS
modifications: N-terminal acetyl (Ac); C-terminal amide; D-isomers at all residues except Gly 4
Regarding B4, in experiment [1], the Ki came out at 2500 nM.

B5: peptide 890 (peptide)
peptide: VPKGWRXHEXSYS
modifications: N-terminal acetyl (Ac); C-terminal amide; D-Cha at 7; D-buthionine at 10; D-isomers at all residues except Gly 4
Consider B5, for which the Ki in experiment [1] worked out at 1.9 nM; in experiment [3] it was 15000 nM; in experiment [4], 14000 nM; in experiment [5], 4500 nM.

B6: peptide 861 (peptide)
peptide: VPKGXRFHEMSYS
modifications: N-terminal acetyl (Ac); C-terminal amide; 5-methoxy-D-Trp at 5; D-isomers at all residues except Gly 4
As to B6, in experiment [1], the Ki worked out at 75 nM.

B7: peptide 867 (peptide)
peptide: VPKGWRXHEMSYS
modifications: N-terminal acetyl (Ac); C-terminal amide; 3-pyridyl-D-Alanine at 7; D-isomers at all residues except Gly 4
Molecule B7 yielded a Ki in experiment [1] of 480 nM.

B8: peptide 859 (peptide)
peptide: VPKGXRFHEMSYS
modifications: N-terminal acetyl (Ac); C-terminal amide; 3-benzothienyl-D-Alanine at 5; D-isomers at all residues except Gly 4
In the case of B8, in experiment [1], the Ki came out at 206 nM.

B9: RI α-MSH analog 891 (peptide)
peptide: Ac-[dV][dP][dK]G[dW][dR][dCha][dH][dS][dI][dI][dS][dS]-NH2
SMILES: CC[C@@H](C)[C@@H](NC(=O)[C@@H](CO)NC(=O)[C@@H](Cc1c[nH]cn1)NC(=O)[C@@H](CC1CCCCC1)NC(=O)[C@@H](CCCNC(=N)N)NC(=O)[C@@H](Cc1c[nH]c2ccccc12)NC(=O)CNC(=O)[C@@H](CCCCN)NC(=O)[C@H]1CCCN1C(=O)[C@H](NC(C)=O)C(C)C)C(=O)N[C@@H](C(=O)N[C@H](CO)C(=O)N[C@H](CO)C(N)=O)[C@H](C)CC
In the case of B9, the EC50, cAMP in B16-F1 cells in experiment [6] came to 81 nM. Besides, the Ki in experiment [1] was 0.43 nM; in experiment [3], 8000 nM; in experiment [4], 3200 nM; in experiment [5] it was 2500 nM.

B10: peptide 873 (peptide)
peptide: VPKGWRFWEMSYS
modifications: N-terminal acetyl (Ac); C-terminal amide; D-isomers at all residues except Gly 4
On to B10, for which, in experiment [1], the Ki turned out to be 1900 nM.

B11: peptide 868 (peptide)
peptide: VPKGWRXHEMSYS
modifications: N-terminal acetyl (Ac); C-terminal amide; 2-thienyl-D-Alanine at 7; D-isomers at all residues except Gly 4
As for B11, the Ki in experiment [1] turned out to be 5.4 nM.

B12: peptide 879 (peptide)
peptide: VPKGWRFHEKSYS
modifications: N-terminal acetyl (Ac); C-terminal amide; D-isomers at all residues except Gly 4
In turn, B12 yielded a Ki in experiment [1] of 832 nM.

B13: peptide 869 (peptide)
peptide: VPKGWRXHEMSYS
modifications: N-terminal acetyl (Ac); C-terminal amide; D-cyclohexylalanine (D-Cha) at 7; D-isomers at all residues except Gly 4
Regarding B13, the Ki in experiment [1] was determined as 2.2 nM; in experiment [5], 25000 nM.

B14: peptide 872 (peptide)
peptide: VPKGWRFREMSYS
modifications: N-terminal acetyl (Ac); C-terminal amide; D-isomers at all residues except Gly 4
In experiment [1], B14 had a Ki of 13.5 nM.

B15: peptide 862-b (peptide)
peptide: VPKGFRFHEMSYS
modifications: N-terminal acetyl (Ac); C-terminal amide; D-isomers at all residues except Gly 4
In experiment [1], B15 gave an inhibition constant Ki of 128 nM.

B16: peptide 860 (peptide)
peptide: VPKGXRFHEMSYS
modifications: N-terminal acetyl (Ac); C-terminal amide; 5-hydroxy-D-Trp at 5; D-isomers at all residues except Gly 4
For B16, the Ki in experiment [1] was found to be 96 nM.

B17: peptide 808 (peptide)
peptide: VPKGWRFHAMSYS
modifications: N-terminal acetyl (Ac); C-terminal amide; D-isomers at all residues except Gly 4
The molecule B17 came in with a Ki in experiment [1] of 2.5 nM.

B18: peptide 880 (peptide)
peptide: Ac-[dV][dP][dK]G[dW][dR]F[dH][dS][dI][dI][dS][dS]-NH2
SMILES: CC[C@@H](C)[C@@H](NC(=O)[C@@H](CO)NC(=O)[C@@H](Cc1c[nH]cn1)NC(=O)[C@H](Cc1ccccc1)NC(=O)[C@@H](CCCNC(=N)N)NC(=O)[C@@H](Cc1c[nH]c2ccccc12)NC(=O)CNC(=O)[C@@H](CCCCN)NC(=O)[C@H]1CCCN1C(=O)[C@H](NC(C)=O)C(C)C)C(=O)N[C@@H](C(=O)N[C@H](CO)C(=O)N[C@H](CO)C(N)=O)[C@H](C)CC
As for B18, the Ki in experiment [1] worked out at 1.8 nM; in experiment [3] it was 18000 nM; in experiment [4] it was 10000 nM.

B19: peptide 807 (peptide)
peptide: VPKGWRFHEASYS
modifications: N-terminal acetyl (Ac); C-terminal amide; D-isomers at all residues except Gly 4
Molecule B19 registered an inhibition constant (Ki) in experiment [1] of 1400 nM.

On to Ac-[dW][dR]F[dH]-NH2 [peptide 883], for which, in experiment [2], the Ki was > 30000 nM.

B20: peptide 886 (peptide)
peptide: Ac-[dV][dP][dK]G[dW][dR][dF][dH][dS][dI][dI][dS][dS]-NH2
SMILES: CC[C@@H](C)[C@@H](NC(=O)[C@@H](CO)NC(=O)[C@@H](Cc1c[nH]cn1)NC(=O)[C@@H](Cc1ccccc1)NC(=O)[C@@H](CCCNC(=N)N)NC(=O)[C@@H](Cc1c[nH]c2ccccc12)NC(=O)CNC(=O)[C@@H](CCCCN)NC(=O)[C@H]1CCCN1C(=O)[C@H](NC(C)=O)C(C)C)C(=O)N[C@@H](C(=O)N[C@H](CO)C(=O)N[C@H](CO)C(N)=O)[C@H](C)CC
Consider B20, for which the inhibition constant (Ki) in experiment [1] was 1 nM; in experiment [3] it was 19000 nM; in experiment [4], 10000 nM; in experiment [5], 20000 nM.

B21: peptide 878 (peptide)
peptide: VPKGWRFHEXSYS
modifications: N-terminal acetyl (Ac); C-terminal amide; D-buthionine at 10; D-isomers at all residues except Gly 4
Turning to B21, the results for the Ki in experiment [1], in experiment [3] and in experiment [5] were 2.3 nM, 40000 nM and 30000 nM, respectively.

B22: peptide 871 (peptide)
peptide: VPKGWRXHEMSYS
modifications: N-terminal acetyl (Ac); C-terminal amide; 4-Nitro-D-Phe at 7; D-isomers at all residues except Gly 4
In experiment [1], B22 had a Ki of 324 nM.

B23: peptide 857 (peptide)
peptide: VPXGWRFHEMSYS
modifications: N-terminal acetyl (Ac); C-terminal amide; D-Ornithine at 3; D-isomers at all residues except Gly 4
As to B23, the Ki in experiment [1] amounted to 3 nM.

B24: peptide 877 (peptide)
peptide: VPKGWRFHEXSYS
modifications: N-terminal acetyl (Ac); C-terminal amide; α-methyl-D-Met at 10; D-isomers at all residues except Gly 4
For the molecule B24, the Ki in experiment [1] turned out to be 282 nM.

B25: peptide 812 (peptide)
peptide: VPKGARFHEMSYS
modifications: N-terminal acetyl (Ac); C-terminal amide; D-isomers at all residues except Gly 4
B25 had a Ki in experiment [1] of 3000 nM.

B26: peptide 875 (peptide)
peptide: VPKGWRFHDMSYS
modifications: N-terminal acetyl (Ac); C-terminal amide; D-isomers at all residues except Gly 4
Molecule B26 came in with a Ki in experiment [1] of 400 nM.

B27: peptide 847int (peptide)
peptide: H-[dV][dP][dK]G[dW][dR][dF][dH]-OH
SMILES: CC(C)[C@@H](N)C(=O)N1CCC[C@@H]1C(=O)N[C@H](CCCCN)C(=O)NCC(=O)N[C@H](Cc1c[nH]c2ccccc12)C(=O)N[C@H](CCCNC(=N)N)C(=O)N[C@H](Cc1ccccc1)C(=O)N[C@H](Cc1c[nH]cn1)C(=O)O
As to B27, the Ki in experiment [1] is 150 nM.

B28: peptide 811 (peptide)
peptide: VPKGWAFHEMSYS
modifications: N-terminal acetyl (Ac); C-terminal amide; D-isomers at all residues except Gly 4
The molecule B28 displayed a Ki in experiment [1] of 13000 nM.

B29: peptide 865 (peptide)
peptide: VPKGWHFHEMSYS
modifications: N-terminal acetyl (Ac); C-terminal amide; D-isomers at all residues except Gly 4
Consider B29, for which the inhibitory constant (Ki) in experiment [1] was 2300 nM.
